From patent US20260176352A1 (BIRD ROCK BIO, published 2026) come the findings set out here.

Values joined by “and” are separate entries in the source; they are usually repeats but may differ in a detail not shown here. Identical values can stand only once.

The target in assay [1] is T1, A139 iCAPS (CB1 with ICL3 native sequence replaced with BRIL) (human, UniProt P21554 99-414).
T1 construct: The insert stands inside the chain in place of ICL3
The assay can be described thus: ELISA, purified IgG on A139 CB1 iCAPS. As to the method: (§1) Purified IgG was tested for binding to purified CB1 receptor (CB1 Conformation Antigen Presenting System (iCAPS)) by ELISA. Non-biotinylated antigens (e.g. empty iCAPS) were coated directly on Maxisorp plates. The primary antibodies were purified IgGs with 1:3 serial dilutions, incubated on the plate for 1 hour. After 3 rounds of washing with PBST, secondary antibodies HRP goat anti-mouse IgG (Abmart) or HRP goat anti-human IgG (Sigma), depending on the species of the IgGs were added and incubated for another hour. The plates were washed three times with PBST, then developed with TMB (Biopanda). HCl was added to the plates to stop the reaction. Absorbance at 450 nm was read on Emax precision microplate reader (Molecular Devices).

In assay [2] the target is T2, A138 iCAPS (CB1 with ICL3 native sequence replaced with protein 1 sequence) (human, UniProt P21554 99-414).
T2 construct: The insert stands inside the chain in place of ICL3
The assay can be described thus: ELISA, purified IgG on A138 CB1 iCAPS. On the procedure:
as §1
For orientation: An ELISA detects its analyte on a solid surface through an enzyme-linked reagent.

For assay [3], the target named is T3, native full length human CB1 receptor (cannabinoid 1 receptor) (human, UniProt P21554 1-472).
T3 construct: whole, on cells; also called A156; Native human CB1 TRex CHO A156
The assay can be described thus: binding to CB1 cells (FIG. 12); unlabeled P4B5.

The target in assay [4] is T3, native full length human CB1 receptor …. The assay can be described thus: flow cytometry, TRex-CHO human CB1 cells; mean of batch 1. As to the method: (§2) TRex CHO parental cells, and TRex-CHO cells stably transfected with tetracycline inducible human CB1, human CB2 or mouse CB1 expression constructs were harvested. […] Cells were then centrifuged at 4° C. at 1600 rpm for 3 minutes; supernatant was aspirated and cells were washed with 200 μL FACS buffer. The washing procedure was repeated twice. After the final wash, cells were re-suspended in FACS buffer containing PE-conjugated anti-human Fc secondary antibody (1:200 dilutions) and incubated at 4° C. for 30 minutes. Cells were washed with 200 μL FACS buffer twice and analyzed by flow cytometry (Guava). Data analysis and measurement of binding affinity (KD) was performed using GraphPad Prism software.
A general note: Flow cytometry measures light scatter and fluorescence of single cells or particles in a stream.

Assay [5] concerns the target 5HT2B (expression cell line) (Homo sapiens (Human), UniProt P41595 1-481). The assay can be described thus: flow cytometry, IgG titrated on cells. As to the method:
(§3) To further assess TRex CHO parental cells, TRex CHO A56 overexpressed CB1, Native human CB1 TRex CHO A156, 5HT2B, Mouse CB1 and human CB2 were used to examine the specificity of IgG binding. 100 μl of 1×10⁶ cells/ml of cells were incubated with primary antibody IgGs in 3-fold serial dilutions starting from 1 μM to 0.5 nM for 30 minutes on ice. After being washed with 200 μl of FACS buffer twice, cells were incubated with secondary antibody for 30 minutes on ice. Cells were washed with 200 μl of FACS buffer twice and transferred to BD Falcon 5 ml tube and analyzed by FACS.
(§4) For selected binders, full binding curves were generated on CB1 receptor by testing a range of concentrations. Three-fold serial dilutions from 1 μM to 0.1 μM were prepared. Selectivity was determined by measuring binding to cells expressing 5HT2B or CB2, relative to binding to A156 (native human CB1 receptor expressing) or A56 (overexpressed-CB1 receptor with the T210A modification and ICL3 replacement with fusion partner) by flow cytometry. […] PE-conjugated anti-mouse (for detection of anti-CB2) and PE conjugated anti-human antibodies were used to detect CB2 and 5HT2B, respectively.

The target of assay [6] is T4, TRex CHO A56 over-expressed CB1 (CB1 T210A/fusion partner) (UniProt P21554 1-472).
T4 construct: whole, on cells; The fusion partner stands inside the CB1 chain in place of ICL3, not at its end; also called Trex-CHO CB1 T210A/fusion partner; not shown: fusion partner that replaces ICL3
The assay can be described thus: flow cytometry, IgG titrated on cells. On the procedure: as §3, §4

The target of assay [7] is T3, native full length human CB1 receptor …. Briefly: flow cytometry, IgG titrated on cells. As to the method:
as §3, §4

For assay [8] the target is unchanged. Briefly: flow cytometry, A156 cells; batch 1.01 mg/ml. On the procedure: as §3, §4
For assay [9] the target is unchanged. The assay can be described thus: cell-based or functional assay.
The target is the same in assay [10]. The assay can be described thus: cell-based or functional assay. The source holds these as a separate data set.
The target in assay [11] is T4, TRex CHO A56 over-expressed CB1 (CB1 …). The assay can be described thus: flow cytometry, A56 cells; batch 1.01 mg/ml. As to the method:
as §3, §4

Assay [12] deals with T3, native full length human CB1 receptor …. The assay can be described thus: flow cytometry, A156 cells; batch 0.49 mg/ml. As to the method:
as §3, §4

The target in assay [13] is T5, mouse CB1 (mouse, UniProt P47746 1-473).
T5 construct: whole, on cells; also called TRexCHO Mouse CB1
T5 sequence (P47746 whole entry): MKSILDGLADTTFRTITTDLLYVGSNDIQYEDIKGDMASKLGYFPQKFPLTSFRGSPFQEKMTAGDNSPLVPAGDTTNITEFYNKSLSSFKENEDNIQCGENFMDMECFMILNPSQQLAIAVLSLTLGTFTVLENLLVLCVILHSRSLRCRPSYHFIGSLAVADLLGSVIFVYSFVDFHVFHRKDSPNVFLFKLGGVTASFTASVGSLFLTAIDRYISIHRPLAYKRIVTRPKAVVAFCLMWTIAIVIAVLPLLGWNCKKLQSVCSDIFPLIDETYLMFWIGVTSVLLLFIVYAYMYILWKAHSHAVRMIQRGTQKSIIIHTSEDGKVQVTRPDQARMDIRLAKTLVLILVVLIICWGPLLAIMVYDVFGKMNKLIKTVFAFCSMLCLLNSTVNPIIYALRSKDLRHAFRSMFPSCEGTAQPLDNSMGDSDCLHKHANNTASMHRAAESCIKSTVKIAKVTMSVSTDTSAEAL
The assay can be described thus: flow cytometry on TRex-CHO mouse CB1 cells, lower panel. On the procedure: (§5) After being washed with 200 μl of FACS buffer twice, cells were incubated with PE conjugated anti-human secondary antibody (Southern Biotech) for 30 minutes on ice. Cells were washed with 200 μl of FACS buffer twice and transferred to BD Falcon 5 ml tube and analyzed by flow cytometry (BD FACScalibur).

The target in assay [14] is T3, native full length human CB1 receptor …. Briefly: flow cytometry, TRex-CHO human CB1 cells; mean of batch 3. On the procedure: as §2
For assay [15] the target is unchanged. The assay can be described thus: flow cytometry, TRexCHO A156 cells. As to the method:
as §5

Assay [16] deals with T4, TRex CHO A56 over-expressed CB1 (CB1 …). The assay can be described thus: flow cytometry, A56 cells; batch 1.25 mg/ml. On the procedure: as §3, §4
The target in assay [17] is T3, native full length human CB1 receptor …. Briefly: flow cytometry on TRex-CHO cells with tetracycline inducible human CB1. On the procedure: as §2
Assay [18] shares this target. The assay can be described thus: flow cytometry, A156 cells; batch 1.25 mg/ml. On the procedure: as §3, §4
Assay [19] shares this target. The assay can be described thus: cell-based or functional assay. This is another data set of the same source.
Assay [20] shares this target. The assay can be described thus: flow cytometry, A156 cells; batch 1.01 mg/ml; A156 cells; batch 1.01 mg/ml, first of two such rows. As to the method:
as §3, §4

Assay [21] addresses T4, TRex CHO A56 over-expressed CB1 (CB1 …). The assay can be described thus: flow cytometry, TRexCHO A56 cells. On the procedure: as §5
In assay [22] the target is T3, native full length human CB1 receptor …. The assay can be described thus: flow cytometry, TRex-CHO human CB1 cells; mean of batch 2. As to the method: as §2
For assay [23] the target is unchanged. Briefly: flow cytometry, TRex-CHO human CB1 cells; mean ± SD. On the procedure: as §2
Assay [24] concerns the target T6, human CB2 (human, UniProt P34972 1-360).
T6 construct: whole, on cells; also called TRexCHO Human CB2
Briefly: flow cytometry on TRex-CHO human CB2 cells, middle panel. On the procedure: as §5

The target in assay [25] is T6, human CB2. The assay can be described thus: flow cytometry, IgG titrated on cells. As to the method: as §3, §4
The target of assay [26] is T5, mouse CB1. The assay can be described thus: flow cytometry on cells expressing the target.
For assay [27], the target named is T3, native full length human CB1 receptor …. The assay can be described thus: flow cytometry, A156 cells; batch 5.78 mg/ml. On the procedure:
as §3, §4

The target in assay [28] is T4, TRex CHO A56 over-expressed CB1 (CB1 …). Briefly: flow cytometry, A56 cells; batch 5.9 mg/ml. As to the method: as §3, §4
Assay [29] has the same target. Briefly: flow cytometry, A56 cells; batch 5.78 mg/ml. As to the method: as §3, §4
Assay [30] concerns the target T3, native full length human CB1 receptor …. Briefly: flow cytometry, A156 cells; batch 4.85 mg/ml. On the procedure: as §3, §4
Assay [31] has the same target. Briefly: flow cytometry, A156 cells; batch 5.28 mg/ml. On the procedure:
as §3, §4

Assay [32] deals with T4, TRex CHO A56 over-expressed CB1 (CB1 …). The assay can be described thus: flow cytometry, A56 cells; batch 4.85 mg/ml. As to the method:
as §3, §4

Assay [33] deals with T3, native full length human CB1 receptor …. Briefly: flow cytometry, A156 cells; batch 5.9 mg/ml. On the procedure:
as §3, §4

Assay [34] deals with T4, TRex CHO A56 over-expressed CB1 (CB1 …). The assay can be described thus: flow cytometry, A56 cells; batch 5.28 mg/ml. On the procedure:
as §3, §4

T6 sequence (P34972 whole entry): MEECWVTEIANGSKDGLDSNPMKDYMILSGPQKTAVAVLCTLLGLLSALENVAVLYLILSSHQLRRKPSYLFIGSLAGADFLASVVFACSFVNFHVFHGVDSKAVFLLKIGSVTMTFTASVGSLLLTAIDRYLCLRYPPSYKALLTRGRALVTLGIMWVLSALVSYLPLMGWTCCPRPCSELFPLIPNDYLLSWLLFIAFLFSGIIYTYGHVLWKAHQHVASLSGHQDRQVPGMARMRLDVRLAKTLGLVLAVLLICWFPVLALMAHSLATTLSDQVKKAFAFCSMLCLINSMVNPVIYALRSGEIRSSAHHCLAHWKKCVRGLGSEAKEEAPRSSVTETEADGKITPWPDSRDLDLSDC
5HT2B (expression cell line), sequence (P41595 whole entry): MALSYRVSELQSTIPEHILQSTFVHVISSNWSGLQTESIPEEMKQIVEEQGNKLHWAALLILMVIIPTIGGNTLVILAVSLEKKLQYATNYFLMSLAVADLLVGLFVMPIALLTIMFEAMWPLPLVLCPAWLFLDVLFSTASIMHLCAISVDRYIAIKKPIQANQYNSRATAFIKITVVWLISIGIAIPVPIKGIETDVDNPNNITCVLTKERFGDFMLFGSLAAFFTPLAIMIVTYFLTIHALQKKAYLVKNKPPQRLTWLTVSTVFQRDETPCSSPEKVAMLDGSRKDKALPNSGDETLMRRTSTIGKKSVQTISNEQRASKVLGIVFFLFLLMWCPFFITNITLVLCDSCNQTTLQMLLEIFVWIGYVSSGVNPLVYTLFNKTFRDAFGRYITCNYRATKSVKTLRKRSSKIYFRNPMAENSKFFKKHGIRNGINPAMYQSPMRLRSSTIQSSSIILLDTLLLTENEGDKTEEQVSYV

B1: PA2LR3-P4B5 (chimeric) (antibody, human IgG1, kappa, V domains shown)
VH: EVQLQQSGAELVRPGSSVKISCKASGYAFSYYWMNWVKQRPGQGLEWIGQIYPGDGDTNYSGRFKGKATLTADKSSSTAYIQLSSLTSEDSAVYFCARSHGNYFPYWGQGTLVTVSA
VL: DIVLNQSPAIMSASLGERVTMTCTASSSVSSSYLHWYQQKPGSSPKLWIYSTSNLASGVPARFSGSGSGTSYSLTISSMEAEDAATYYCHQYHRSPLTFGAGTKLEIKR
Regarding B1, the EC50 in assay [1] was found to be 0.24 nM; in [2], 0.24 nM; in assay [3] it was 60.5 nM.

B2: PA13R3-P1C4 (chimeric) IgG (antibody, V domains shown)
VH: EVQLQQSGAELVRPGVSVKISCKASGYEFSYYWMNWVKQRPGQGLEWIGQIYPGDGETKYNGKFKGKATLTADKSSNTAYMQLSSLTSEDSAVYFCARSHGNYLPYWGQGTLVTVSA
VL: DIVLTQSPAIMSASLGERVTMTCTASSSVSSSYLHWYQQKPGSSPKLWIYSTSNLASGVPARFSGSGSGTSYSLTISSMEAEDAATYYCHQYHRSPPTFGAGTKLELKR
notes: Phage-derived mouse variable regions on human constant regions; also called Chimeric P1C4-IgG; PA13R3-P1C4 IgG
On to B2, for which the Kd in [4] is 92 nM; in assay [8], 171 nM; in [11] it was 27.3 nM; in assay [12], 187 nM; in assay [14], 96 nM; in assay [15], 25 nM. Moreover, the Kd stood at 50.6 nM in assay [16]; 72.6 nM in assay [18]; 40.5 nM in [20]; 10.5 nM in assay [21]; 116 nM in [22]; 103 nM in [23]. Further, the binding result was “no binding (tested: 1000 nM)” in assay [5], “no binding (tested: about 300 nM (last point))” in [13] and “no binding (tested: about 300 nM (last point))” in assay [24]. Further, the “EC50 (read off the curve)” value in assay [6] was roughly 20 nM; in assay [7], roughly 30 nM; in assay [17], ~60 nM and ~40 nM. Also, the “cAMP IC50 (nM) Mean of Batch 1 [n]” value in assay [9] was determined as 120 nM. Moreover, the “cAMP IC50 (nM) Mean of Batch 2 [n]” value in assay [9] was 155 nM. For the same molecule, the EC50 in [1] stood at 0.175 nM; in assay [2] it was 0.172 nM. Besides, the “IC50 (nM), cAMP assay” value in assay [10] came to 93 nM. The “IC50, cAMP functional antagonist assay” value in [19] came to 90 nM.

B3: 36E12B6C2 IgG (hybridoma-derived) (antibody, V domains shown)
VH: QVQLQQSGAELVRPGSSVKISCKASGYEFSYYWMNWVKQRPGQGLQWIGQIYPGDGDTNYNGKFKGKATLTADKSSSTAYMHLTSLTSEDSAVYFCARSGGNPFAFWGQGTLVTVSA
VL: DIQMTQTSSSLSASLGDRVTFSCRASQDISNYLNWYQQKPDGTVKLLIYYTSRLHSGVTSRFRGSGSGTDYSLTISNLEQEDVATYFCQQGHTLPWSFGGGTKLEIKR
Turning to B3, the binding result in assay [5] is “no binding (tested: 1000 nM)”; in assay [25], “no binding (tested: 1000 nM)”; in assay [26], “no binding (tested: 1 µM)”. Also, the “EC50 (read off the curve)” value is roughly 40 nM in [6] and roughly 60 nM in assay [7]. Besides, the Kd stood at 151 nM in [27]; 60.2 nM in [28]; 69.4 nM in assay [29]; 64 nM in assay [30]; 27.7 nM in assay [31]; 29.3 nM in assay [32]. Further, the Kd in assay [33] is 26 nM; in assay [34] it was 51.9 nM.

By EC50 is commonly meant the concentration at which the effect is half-maximal. Lower therefore signals higher potency in that assay. Usually Kd stands for a measure of binding affinity in units of concentration. Low readings indicate tighter binding, high ones weaker binding. The term EC50 (read off the curve) denotes the concentration at which the effect is half-maximal. A low value points to higher potency in that assay.
